Measurements as given in US20090175847A1.

Key:
[1] = molecular target: Aβ(1-42) globulomer (human) (UniProt P05067); assay: dot blot densitometry; antigen: Aβ(1-42) globulomer
[2] = molecular target: Aβ(20-42) globulomer (human); assay: dot blot densitometry; antigen: Aβ(20-42) globulomer (the reference of the ratio)
Aβ(1-42) fibrils (human) = Aβ(1-42) fibrils (human) (UniProt P05067); assay: dot blot densitometry; antigen: Aβ(1-42) fibril; the dot is read as a thousands separator
Aβ(1-40) monomer (human) = assay: dot blot densitometry; antigen: Aβ(1-40) monomer, 0.1% NH4OH; the dot is read as a thousands separator
Aβ(1-42) monomer (human) = assay: dot blot densitometry; antigen: Aβ(1-42) monomer, 0.1% NH4OH; the dot is read as a thousands separator (no dot in column 1 of panel A)
Sequence of Aβ(1-42) monomer (human) (peptide, as listed by the source): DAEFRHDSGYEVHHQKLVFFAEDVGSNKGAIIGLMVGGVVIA

Sequence of Aβ(1-40) monomer (human) (peptide, as listed by the source): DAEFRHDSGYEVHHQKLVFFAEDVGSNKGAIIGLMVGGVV
Sequence of Aβ(20-42) globulomer (human) (peptide, as listed by the source): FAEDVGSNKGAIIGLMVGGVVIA

B1: humanized antibody 5F7hum8 (antibody, IgG1, V domains shown)
VH: EVQLVQSGAEVKKPGASVKVSCKASGYTFTTFYIHWVRQAPGQGLEWIGMIGPGSGNTYYNEMFKDKATLTVDTSTSTAYMELSSLRSEDTAVYYCARAKSARAAWFAYWGQGTLVTVSS
VL: DIVMTQSPLSLPVTPGEPASISCRSSQSVVQSNGNTYLEWYLQKPGQSPQLLIYKVSNRFSGVPDRFSGSGSGTDFTLKISRVEAEDVGVYYCFQGSHVPPTFGGGTKVEIKR
relation between recognition of Aβ(20-42) globulomer and the respective Aβ form [1]: 17 | relation between recognition of Aβ(20-42) globulomer and the respective Aβ form [2]: 1 | relation between recognition of Aβ(20-42) globulomer and the respective Aβ form (Aβ(1-42) fibrils (human)): > 10000 | relation between recognition of Aβ(20-42) globulomer and the respective Aβ form (Aβ(1-40) monomer (human)): > 10000 | relation between recognition of Aβ(20-42) globulomer and the respective Aβ form (Aβ(1-42) monomer (human)): 10400
